Results on five molecules are retold here after article PMC8458463, “Liquid condensation of reprogramming factor KLF4 with DNA provides a mechanism for chromatin organization”.

Conditions in all cases: protein: recombinant; tags: Nano-His6-TEV tag cleaved
Series [1] addresses T1, KLF4 DBD (human, UniProt O43474 418-513). Put plainly: X-ray crystallography; Zn2+; 2.14 A, 1:1 complex; EMSA: 20 mM Tris pH 8, 50 mM NaCl, 5% glycerol, 0.01 mg/ml BSA, 0.1 mM DTT, 0.05 mM TCEP; gel run at 4 C; protein refolded with 3.3 eq ZnSO4.
The target in series [2] is T1, KLF4 DBD. Put plainly: EMSA; Zn2+; 1 uM DNA, 0-6 uM DBD; 1:1, 2:1 and 3:1 complexes, 3:1 needs 6 equivalents; EMSA: 20 mM Tris pH 8, 50 mM NaCl, 5% glycerol, 0.01 mg/ml BSA, 0.1 mM DTT, 0.05 mM TCEP; gel run at 4 C; protein refolded with 3.3 eq ZnSO4.
The target of series [3] is T1, KLF4 DBD. The series is described as follows: EMSA; Zn2+; DBD up to 15 uM; EMSA: 20 mM Tris pH 8, 50 mM NaCl, 5% glycerol, 0.01 mg/ml BSA, 0.1 mM DTT, 0.05 mM TCEP; gel run at 4 C; protein refolded with 3.3 eq ZnSO4. On the technique in general: Mobility shift assays separate free from complexed probe on a gel.
In series [4] the target is T1, KLF4 DBD. Put plainly: EMSA; Zn2+; 1 uM DNA, 0-6 uM DBD; 3:1 complex at 3 equivalents, tighter than NANK; EMSA: 20 mM Tris pH 8, 50 mM NaCl, 5% glycerol, 0.01 mg/ml BSA, 0.1 mM DTT, 0.05 mM TCEP; gel run at 4 C; protein refolded with 3.3 eq ZnSO4.

T1 sequence (O43474 418-513): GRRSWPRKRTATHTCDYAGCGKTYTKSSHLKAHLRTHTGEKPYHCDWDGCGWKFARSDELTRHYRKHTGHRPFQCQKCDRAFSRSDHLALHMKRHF

B1: NKA (dsDNA)
DNA 1: AGGGGGTGTGCC
DNA 2: GGCACACCCCCT
As for B1, in the series with KLF4 DBD [1], the binding result is “binds”.

B2: NANK (dsDNA)
DNA 1: AGGGGGTGTGCCCGCCAGGAGGGGTGGGTC
DNA 2: GACCCACCCCTCCTGGCGGGCACACCCCCT
As to B2, the binding result with KLF4 DBD [2] is reported as “binds”.

B3: NKC (dsDNA)
DNA 1: GAGGGGTGGGTC
DNA 2: GACCCACCCCTC
In the case of B3, the binding result with KLF4 DBD [3] is given as “binds”.

B4: NANKm (dsDNA)
DNA 1: B2 DNA 1
DNA 2: B2 DNA 2
modifications: 5-methyl-dC at position 13 of strand 1 (CpG in KLFB); complement strand methylation not stated
Turning to B4, in the series with KLF4 DBD [4], the binding result was “binds”.

B5: NKB (dsDNA)
DNA 1: TGCCCGCCAGGA
DNA 2: TCCTGGCGGGCA
Consider B5, for which, in the series with KLF4 DBD [3], the binding result is recorded as “binds”.
